According to the RNAGym collection of RNA variant scans (doi:10.7554/elife.90254):

B1: LINE1-full (parent)
chain: UACGUAGGUGGUUUUCCCCUGAUAGUGCUAAGGGGGCCUGGAAGUUUGGACUGGGCAGAGCUCAACACAGCGUGGCAAAGUGGCUGUGGCUAGACUGCCUCUCUGGAUUCCUCGUCACUCAGCAGGGCAUCUCUGAGAGAAAUGCC

Variants of: B1
Assay: self-cleavage, relative activity (ratio to wild type); higher = more cleavage; in vitro, sequencing; the parent is a self-cleaving ribozyme

Question: With U46C G122A as the variant, how does the self-cleavage read?
Answer: 1.6

Question: For U47A A59G, which self-cleavage is on record?
Answer: 0.05

Question: With U45G A57G as the variant, how does the self-cleavage read?
Answer: 0.9

Question: With U46G U112G as the variant, how does the self-cleavage read?
Answer: 0

Question: Which self-cleavage does the source give for U46G U112C here?
Answer: 1.48

Question: Which self-cleavage does the source give for U46G A107G here?
Answer: 1.15

Question: Which self-cleavage does the source give for U46G U73C here?
Answer: 1.02

Question: With U45A A67G as the variant, how does the self-cleavage read?
Answer: 0.37

Question: With U46C A138U as the variant, how does the self-cleavage read?
Answer: 1.65

Question: For U46C U73A, which self-cleavage is on record?
Answer: 1.68

Question: Which self-cleavage does the source give for U46C U73C here?
Answer: 2.17

Question: With U45C U109C as the variant, how does the self-cleavage read?
Answer: 0.61

Question: Which self-cleavage does the source give for U46C A79G here?
Answer: 1.29

Question: For U46C A79U, which self-cleavage is on record?
Answer: 1.83

Question: Which self-cleavage does the source give for U45A U130A here?
Answer: 1.38

Question: Which self-cleavage does the source give for U46A U91A here?
Answer: 0.62

Question: Which self-cleavage does the source give for U45C U73G here?
Answer: 1.22

Question: With U45A U134A as the variant, how does the self-cleavage read?
Answer: 1.11

Question: Which self-cleavage does the source give for U45A U134C here?
Answer: 1.49

Question: Which self-cleavage does the source give for U45C A107G here?
Answer: 1.73

Question: Which self-cleavage does the source give for U45C G54U here?
Answer: 0.11

Question: With G44U U96G as the variant, how does the self-cleavage read?
Answer: 0.06

Question: With U45C G49A as the variant, how does the self-cleavage read?
Answer: 0.77

Question: For G44A U62C, which self-cleavage is on record?
Answer: 0.02

Question: With U46G U87C as the variant, how does the self-cleavage read?
Answer: 0

Question: With U46A A142U as the variant, how does the self-cleavage read?
Answer: 1.19

Question: With U46A U119A as the variant, how does the self-cleavage read?
Answer: 1.42

Question: Which self-cleavage does the source give for G44A U46A here?
Answer: 0.79

Question: Which self-cleavage does the source give for U45A U109A here?
Answer: 0.94

Question: With U46A U96A as the variant, how does the self-cleavage read?
Answer: 0.05

Question: Which self-cleavage does the source give for U45G U87C here?
Answer: 0.25

Question: With U46A U52A as the variant, how does the self-cleavage read?
Answer: 1.87

Question: With G44A U52C as the variant, how does the self-cleavage read?
Answer: 1.32

Question: Which self-cleavage does the source give for U45C G126A here?
Answer: 1.32

Question: With U47A A64C as the variant, how does the self-cleavage read?
Answer: 0.25

Question: With U47A A64U as the variant, how does the self-cleavage read?
Answer: 0.44

Question: For U45A U132C, which self-cleavage is on record?
Answer: 1.93

Question: For U46A A65G, which self-cleavage is on record?
Answer: 0.02

Question: With U46C A117G as the variant, how does the self-cleavage read?
Answer: 1.78

Question: Which self-cleavage does the source give for U46C A117U here?
Answer: 1.78

Question: For U46A G125A, which self-cleavage is on record?
Answer: 2

Question: For U46A A107C, which self-cleavage is on record?
Answer: 1.99

Question: For U45C U115G, which self-cleavage is on record?
Answer: 2.1

Question: With U45C U115C as the variant, how does the self-cleavage read?
Answer: 2.14

Question: Which self-cleavage does the source give for U45G U85G here?
Answer: 0.28

Question: For U46A A77U, which self-cleavage is on record?
Answer: 1.24

Question: With U46C A64U as the variant, how does the self-cleavage read?
Answer: 0.55

Question: Which self-cleavage does the source give for U45A A142G here?
Answer: 1.55

Question: Which self-cleavage does the source give for U46A A78U here?
Answer: 2.19

Question: With U46A A78G as the variant, how does the self-cleavage read?
Answer: 0.69

Question: With G44C U115A as the variant, how does the self-cleavage read?
Answer: 1.77

Question: With U45C G88A as the variant, how does the self-cleavage read?
Answer: 0.08

Question: With U46G A136G as the variant, how does the self-cleavage read?
Answer: 1.96

Question: With U46G A136U as the variant, how does the self-cleavage read?
Answer: 1.34

Question: Which self-cleavage does the source give for U46C A140U here?
Answer: 1.46

Question: Which self-cleavage does the source give for U46C A140G here?
Answer: 1.41

Question: For U46C U52C, which self-cleavage is on record?
Answer: 1.26

Question: For U47A A79U, which self-cleavage is on record?
Answer: 1.64

Question: Which self-cleavage does the source give for U47A A79G here?
Answer: 1.05

Question: For U46C G114U, which self-cleavage is on record?
Answer: 1.12

Question: For U46C G114A, which self-cleavage is on record?
Answer: 1.22

Question: Which self-cleavage does the source give for U45C A141G here?
Answer: 1.37

Question: Which self-cleavage does the source give for U46C A94C here?
Answer: 0.1

Question: Which self-cleavage does the source give for U45A U62C here?
Answer: 0.03

Question: For U45A U62A, which self-cleavage is on record?
Answer: 0

Question: For U45C G74A, which self-cleavage is on record?
Answer: 1.25

Question: For U45A C146U, which self-cleavage is on record?
Answer: 1.37

Question: With U46C A129G as the variant, how does the self-cleavage read?
Answer: 2.35

Question: With U46C A129U as the variant, how does the self-cleavage read?
Answer: 1.27

Question: For U46G G60C, which self-cleavage is on record?
Answer: 0

Question: With U45G U132A as the variant, how does the self-cleavage read?
Answer: 0.86

Question: Which self-cleavage does the source give for U45C A140C here?
Answer: 2.27

Question: With U45C A140G as the variant, how does the self-cleavage read?
Answer: 1.41

Question: With U45C C120U as the variant, how does the self-cleavage read?
Answer: 1.45

Question: Which self-cleavage does the source give for U46C A50G here?
Answer: 1.59

Question: Which self-cleavage does the source give for U47A A78G here?
Answer: 0.29

Question: Which self-cleavage does the source give for U47A A78U here?
Answer: 2.04

Question: With U45A A107G as the variant, how does the self-cleavage read?
Answer: 1.44

Question: With U45C U134G as the variant, how does the self-cleavage read?
Answer: 1.22

Question: Which self-cleavage does the source give for U45C U134C here?
Answer: 1.47

Question: For U45C U134A, which self-cleavage is on record?
Answer: 1.6

Question: Which self-cleavage does the source give for U45G A50G here?
Answer: 0.89

Question: Which self-cleavage does the source give for G44A U132C here?
Answer: 1.31

Question: With U46C A57U as the variant, how does the self-cleavage read?
Answer: 0.17
